Laboratory results from US20070224194A1, “Methods for Inhibiting Angiogenesis and/or Lymphangiogenesis” (LUDWIG INSTITUTE FOR CANCER RESEARCH, priority 2004, published 2007).
Like-named read-outs stand apart in the source and are kept apart here. Blank lines part the entries; values can stand above or below the molecule they belong to.

Experiments:
VEGFR-1-Ig = molecular target: T1, VEGFR-1-Ig (human, UniProt P17948 27-758); test: pull-down with receptor-Ig on protein-A sepharose from LoVo conditioned medium, Western blot
T1 construct: extracellular domain; R&D Systems is named as its source; used as a negative control; also called soluble fusion protein of the extracellular domain of human VEGFR-1 and the Fc portion of human IgG; not shown: Fc portion of human IgG
Procedure: (§1) Binding to receptor extracellular domains was examined using soluble fusion proteins consisting of the extracellular domains of human VEGFR-1, VEGFR-2 or VEGFR-3 joined to the Fe portions of human IgG (referred to as VEGFR-1-Ig (R&D Systems), VEGFR-2-Ig and VEGFR-3-Ig) (Achen et al, Proc. Natl. Acad. Sci. USA 95 548-553, 1998). Protein-A sepharose beads were incubated overnight with the conditioned media of 293EBNA cells expressing VEGFR-1-Ig, VEGFR-2-Ig or VEGFR-3-Ig to precipitate the soluble receptor constructs. The soluble receptors bound to protein-A sepharose beads were recovered by centrifugation (5 minutes, 250×g, 4° C.) and washed twice with binding buffer (0.5% (w/v) BSA, 0.02% (v/v) Tween 20, 10 μg/ml heparin in phosphate buffered saline). The soluble receptors bound to protein-A sepharose beads were then incubated with the conditioned media of LoVo cells, that had been co-transfected with pVDAPEX FULL-N-FLAG and pcDNA3:furin, for three hours at room temperature, and washed twice with binding buffer. Proteins bound to the VEGFR-2-Ig and VEGFR-3-Ig constructs were analysed by reducing SDS-PAGE and Western blotting with a biotinylated antibody against the VHD of human VEGF-D (R&D Systems), followed by Streptavidin-horse radish peroxidase conjugate (Zymed).

VEGFR-2 [1] = molecular target: T2, VEGFR-2 (Homo sapiens, UniProt P35968); test: Biosensor analysis (surface plasmon resonance) of VEGF-D ligands on VEGFR-2; format: binding; conditions: 1:1 Langmurian model
Procedure: (§2) To determine the relative affinities of the ligands VEGF-DSSTS.IISS, VEGF-D-FULL-N-FLAG and mature VEGF-D (designated VEGF-DΔNΔC) for VEGFR-2 and VEGFR-3, the relative binding kinetics for these interactions was analyzed by biosensor analysis using surface plasmon resonance detection (Nice et al., Bioessays, 21:339-352, 1999). The preparations of VEGF-DSSTS.IISS and VEGF-DΔNΔC used for this analysis each consisted of one VEGF-D species devoid of other forms of VEGF-D but the preparation of VEGF-D-FULL-N-FLAG did contain traces of partially processed as well as full-length material, reflecting the capacity of wild-type full-length VEGF-D to be proteolytically processed in the 293EBNA cell cultures) from which these proteins were purified (see FIG. 10B). The binding constants for the interactions were obtained by analysis of the initial dissociation phase to obtain the kd, which was then used to constrain a global analysis of the association region of the curves, using regions of the curves where a 1:1 Langmurian model appeared to be operative.

VEGFR-3 [2] = molecular target: T3, VEGFR-3 (Homo sapiens, UniProt P35916); conditions: cited from earlier work
VEGFR-2 [3] = molecular target: T2, VEGFR-2; conditions: full-length form that could be processed, cited from earlier work
VEGFR-3 [4] = molecular target: T3, VEGFR-3; test: Biosensor analysis (surface plasmon resonance) of VEGF-D ligands on VEGFR-3; format: binding
Procedure: as §2

[5] = molecular target: T4, extracellular domain of human VEGFR-3 (VEGFR-3-Ig) (Homo sapiens, UniProt P35916); test: Precipitation with soluble receptor VEGFR-3-Ig from LoVo conditioned media; format: binding; conditions: conditioned media of LoVo cells co-transfected with VEGF-D-FULL-N-FLAG and furin
T4 construct: soluble fusion proteins consisting of the extracellular domains of human VEGFR-1, VEGFR-2 or VEGFR-3; made in house; host or cells: 293EBNA cells (conditioned media, captured on protein-A sepharose)
T4 sequence (P35916 25-775 limits assumed): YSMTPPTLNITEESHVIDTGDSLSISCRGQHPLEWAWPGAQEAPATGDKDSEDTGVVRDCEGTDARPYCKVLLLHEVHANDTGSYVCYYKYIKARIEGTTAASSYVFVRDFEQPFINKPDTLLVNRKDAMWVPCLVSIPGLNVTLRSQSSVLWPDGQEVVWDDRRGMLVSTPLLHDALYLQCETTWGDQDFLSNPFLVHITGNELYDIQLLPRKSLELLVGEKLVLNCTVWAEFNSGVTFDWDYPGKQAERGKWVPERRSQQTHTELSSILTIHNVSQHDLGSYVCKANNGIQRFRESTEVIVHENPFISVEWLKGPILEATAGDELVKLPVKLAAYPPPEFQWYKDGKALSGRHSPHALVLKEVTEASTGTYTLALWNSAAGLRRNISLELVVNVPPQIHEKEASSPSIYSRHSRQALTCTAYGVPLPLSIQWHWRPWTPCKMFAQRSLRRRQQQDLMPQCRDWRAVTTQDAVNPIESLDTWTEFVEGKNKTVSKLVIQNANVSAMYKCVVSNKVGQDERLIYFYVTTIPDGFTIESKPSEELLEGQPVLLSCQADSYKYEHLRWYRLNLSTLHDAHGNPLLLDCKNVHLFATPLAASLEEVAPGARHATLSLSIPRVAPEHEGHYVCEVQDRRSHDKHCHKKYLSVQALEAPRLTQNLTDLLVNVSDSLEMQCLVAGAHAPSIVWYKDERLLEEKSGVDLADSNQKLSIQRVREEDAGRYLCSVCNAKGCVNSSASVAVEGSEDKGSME
Procedure: as §1

[6] = molecular target: T5, extracellular domain of human VEGFR-2 (VEGFR-2-Ig) (Homo sapiens, UniProt P35968); test: Precipitation with soluble receptor VEGFR-2-Ig from LoVo conditioned media; format: binding; conditions: conditioned media of LoVo cells co-transfected with VEGF-D-FULL-N-FLAG and furin
T5 construct: soluble fusion proteins consisting of the extracellular domains of human VEGFR-1, VEGFR-2 or VEGFR-3; made in house; host or cells: 293EBNA cells (conditioned media, captured on protein-A sepharose)
Procedure: as §1

T2 sequence (P35968 20-1356): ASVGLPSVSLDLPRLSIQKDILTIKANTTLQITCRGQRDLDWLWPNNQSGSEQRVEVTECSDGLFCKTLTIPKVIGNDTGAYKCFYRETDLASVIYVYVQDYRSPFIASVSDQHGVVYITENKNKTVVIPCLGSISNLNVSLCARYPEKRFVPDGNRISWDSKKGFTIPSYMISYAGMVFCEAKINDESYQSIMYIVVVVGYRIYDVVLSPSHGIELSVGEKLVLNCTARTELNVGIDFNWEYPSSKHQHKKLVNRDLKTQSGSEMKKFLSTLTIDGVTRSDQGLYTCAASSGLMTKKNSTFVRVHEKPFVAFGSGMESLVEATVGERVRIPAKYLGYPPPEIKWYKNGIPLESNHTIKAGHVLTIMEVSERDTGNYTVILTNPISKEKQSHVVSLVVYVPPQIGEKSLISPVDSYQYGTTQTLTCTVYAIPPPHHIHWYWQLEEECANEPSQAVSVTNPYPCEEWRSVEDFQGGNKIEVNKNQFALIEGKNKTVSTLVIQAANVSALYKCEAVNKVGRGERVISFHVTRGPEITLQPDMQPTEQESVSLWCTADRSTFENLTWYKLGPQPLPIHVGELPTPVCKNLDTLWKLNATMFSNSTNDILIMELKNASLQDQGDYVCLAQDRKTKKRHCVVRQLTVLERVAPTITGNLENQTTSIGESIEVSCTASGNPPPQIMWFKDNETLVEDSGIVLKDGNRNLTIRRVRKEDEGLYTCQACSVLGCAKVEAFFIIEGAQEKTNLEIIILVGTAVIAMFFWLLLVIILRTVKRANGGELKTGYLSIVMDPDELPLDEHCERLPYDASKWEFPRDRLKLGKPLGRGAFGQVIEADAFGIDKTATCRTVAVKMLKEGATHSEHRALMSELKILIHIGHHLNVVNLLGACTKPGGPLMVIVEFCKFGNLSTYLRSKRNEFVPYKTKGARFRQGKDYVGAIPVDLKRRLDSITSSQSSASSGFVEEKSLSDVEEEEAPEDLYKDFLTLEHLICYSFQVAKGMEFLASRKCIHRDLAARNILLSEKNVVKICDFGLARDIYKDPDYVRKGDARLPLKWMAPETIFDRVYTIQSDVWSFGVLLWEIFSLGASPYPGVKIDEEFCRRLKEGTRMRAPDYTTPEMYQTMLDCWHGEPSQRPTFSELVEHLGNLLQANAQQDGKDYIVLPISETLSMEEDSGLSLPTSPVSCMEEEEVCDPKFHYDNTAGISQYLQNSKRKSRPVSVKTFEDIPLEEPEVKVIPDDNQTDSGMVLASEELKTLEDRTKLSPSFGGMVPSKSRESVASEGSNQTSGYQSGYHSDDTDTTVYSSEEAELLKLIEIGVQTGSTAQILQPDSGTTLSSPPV
T3 sequence (P35916 25-1363): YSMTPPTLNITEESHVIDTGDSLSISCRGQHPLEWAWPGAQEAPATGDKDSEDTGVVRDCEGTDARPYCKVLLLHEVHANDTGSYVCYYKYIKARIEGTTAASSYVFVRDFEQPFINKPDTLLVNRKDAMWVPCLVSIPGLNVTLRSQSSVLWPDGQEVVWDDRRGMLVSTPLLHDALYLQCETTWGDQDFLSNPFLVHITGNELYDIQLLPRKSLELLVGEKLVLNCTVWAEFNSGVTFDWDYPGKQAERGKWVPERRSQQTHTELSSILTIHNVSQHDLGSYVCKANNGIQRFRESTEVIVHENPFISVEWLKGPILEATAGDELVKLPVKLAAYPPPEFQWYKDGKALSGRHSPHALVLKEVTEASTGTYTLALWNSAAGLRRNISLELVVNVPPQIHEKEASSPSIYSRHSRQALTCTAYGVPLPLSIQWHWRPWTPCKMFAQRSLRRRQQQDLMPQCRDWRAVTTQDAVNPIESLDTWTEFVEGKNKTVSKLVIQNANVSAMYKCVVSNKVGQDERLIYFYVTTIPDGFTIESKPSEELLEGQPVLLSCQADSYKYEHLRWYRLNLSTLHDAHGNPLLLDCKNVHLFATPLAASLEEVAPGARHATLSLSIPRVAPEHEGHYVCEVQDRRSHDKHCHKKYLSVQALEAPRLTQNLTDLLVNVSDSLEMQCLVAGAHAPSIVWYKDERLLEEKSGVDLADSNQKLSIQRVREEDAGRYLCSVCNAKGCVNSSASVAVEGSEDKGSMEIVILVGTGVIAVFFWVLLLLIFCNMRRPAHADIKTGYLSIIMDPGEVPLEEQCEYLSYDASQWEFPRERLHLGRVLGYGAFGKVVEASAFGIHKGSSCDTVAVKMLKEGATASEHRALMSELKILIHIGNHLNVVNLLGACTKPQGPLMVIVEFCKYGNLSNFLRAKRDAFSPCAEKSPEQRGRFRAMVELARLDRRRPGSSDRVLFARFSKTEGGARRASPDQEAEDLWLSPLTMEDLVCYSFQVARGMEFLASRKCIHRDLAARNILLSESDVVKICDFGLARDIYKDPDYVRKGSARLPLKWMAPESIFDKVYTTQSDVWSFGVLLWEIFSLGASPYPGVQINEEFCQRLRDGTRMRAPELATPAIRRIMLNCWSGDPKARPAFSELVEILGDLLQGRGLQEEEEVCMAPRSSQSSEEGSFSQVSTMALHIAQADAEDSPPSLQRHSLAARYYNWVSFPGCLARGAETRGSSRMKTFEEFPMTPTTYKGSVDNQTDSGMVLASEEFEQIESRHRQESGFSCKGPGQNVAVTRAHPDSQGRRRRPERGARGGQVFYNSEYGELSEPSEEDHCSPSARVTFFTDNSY
T5 sequence (P35968 20-764 limits assumed): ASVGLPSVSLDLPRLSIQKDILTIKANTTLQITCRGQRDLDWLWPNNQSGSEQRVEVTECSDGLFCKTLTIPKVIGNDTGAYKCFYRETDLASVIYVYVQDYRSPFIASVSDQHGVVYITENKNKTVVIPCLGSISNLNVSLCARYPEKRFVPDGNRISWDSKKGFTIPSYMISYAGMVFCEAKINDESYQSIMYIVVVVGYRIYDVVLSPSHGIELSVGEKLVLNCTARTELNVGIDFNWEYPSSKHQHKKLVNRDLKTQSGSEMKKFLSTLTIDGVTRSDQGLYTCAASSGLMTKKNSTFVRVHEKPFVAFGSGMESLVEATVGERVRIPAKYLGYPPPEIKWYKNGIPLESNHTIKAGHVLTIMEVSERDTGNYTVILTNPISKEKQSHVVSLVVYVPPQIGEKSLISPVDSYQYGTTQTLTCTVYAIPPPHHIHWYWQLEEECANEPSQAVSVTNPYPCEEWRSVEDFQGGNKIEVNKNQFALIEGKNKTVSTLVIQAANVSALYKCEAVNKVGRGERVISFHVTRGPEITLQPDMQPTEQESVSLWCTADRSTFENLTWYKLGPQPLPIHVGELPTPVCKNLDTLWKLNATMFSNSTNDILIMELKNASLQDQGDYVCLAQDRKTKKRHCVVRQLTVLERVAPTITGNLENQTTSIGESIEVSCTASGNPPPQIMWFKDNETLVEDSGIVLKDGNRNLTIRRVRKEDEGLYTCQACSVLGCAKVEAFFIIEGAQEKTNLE
T1 sequence (P17948 27-758): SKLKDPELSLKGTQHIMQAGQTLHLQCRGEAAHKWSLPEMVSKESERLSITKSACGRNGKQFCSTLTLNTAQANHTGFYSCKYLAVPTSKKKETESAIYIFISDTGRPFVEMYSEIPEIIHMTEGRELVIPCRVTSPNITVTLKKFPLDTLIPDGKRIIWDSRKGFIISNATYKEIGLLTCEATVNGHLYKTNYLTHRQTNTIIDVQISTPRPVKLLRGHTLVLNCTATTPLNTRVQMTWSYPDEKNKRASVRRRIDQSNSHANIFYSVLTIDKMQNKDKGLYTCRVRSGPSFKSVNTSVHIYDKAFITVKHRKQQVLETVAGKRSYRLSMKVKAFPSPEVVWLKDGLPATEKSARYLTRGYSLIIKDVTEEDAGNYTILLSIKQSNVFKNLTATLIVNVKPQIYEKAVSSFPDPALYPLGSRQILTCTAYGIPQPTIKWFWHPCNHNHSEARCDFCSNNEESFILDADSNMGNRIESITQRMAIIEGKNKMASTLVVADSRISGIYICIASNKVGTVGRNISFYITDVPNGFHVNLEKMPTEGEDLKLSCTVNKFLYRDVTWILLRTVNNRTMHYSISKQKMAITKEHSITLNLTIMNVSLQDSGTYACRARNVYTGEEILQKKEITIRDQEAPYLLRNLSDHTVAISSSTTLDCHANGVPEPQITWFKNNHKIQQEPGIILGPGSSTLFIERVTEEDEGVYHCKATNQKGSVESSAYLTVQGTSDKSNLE

binding result (VEGFR-1-Ig): no binding
B1: mature form of VEGF-D generated by furin (ligand, human, UniProt O43915 89-205, looked up)
chain: FAATFYDIETLKVIDEEWQRTQCSPRETCVEVASELGKSTNTFFKPPCVNVFRCGGCCNEESLICMNTSTSYISKQLFEISVPLTSVPELVPVKVANHTGCKCLPTAPRHPYSIIRR
notes: range 89-205; Present in conditioned medium of LoVo cells co-transfected with pVDAPEX FULL-N-FLAG and pcDNA3:furin; not purified; also called ˜21 kDa VEGF-D species; mature VEGF-D

apparent affinity for VEGFR-2 relative to unprocessed mutant VEGF-DSSTS.IISS (VEGFR-2 [1]): ~17,000 fold | affinity for VEGFR-3 relative to VEGF-DSSTS.IISS (VEGFR-3 [4]): ~18 fold
B2: mature VEGF-D: mature form of VEGF-D consisting of dimers of the VHD, lacking both propeptides (protein)
chain: B1 chain
affinity for VEGFR-3 relative to unprocessed VEGF-D, previously reported (VEGFR-3 [2]): ~40 fold | affinity for VEGFR-2 relative to full-length (unprocessed) VEGF-D, previously reported (VEGFR-2 [3]): ~290 fold | affinity for VEGFR-2 relative to full-length (unprocessed) VEGF-D, previously reported (VEGFR-2 [3]; listed as mature form of VEGF-D): approximately 290 fold

binding to the extracellular domain of VEGFR-3 [5]: binds | binding to the extracellular domain of VEGFR-2 [6]: binds
B3: mature form of VEGF-D generated by furin: ~21 kDa VEGF-D species from LoVo cells co-transfected with VEGF-D-FULL-N-FLAG and furin expression constructs (protein)
chain: B1 chain
